Source: the nanobody polyreactivity screen of Harvey et al. (2022)

Assay: yeast display, Sf9 membrane polyspecificity reagent, FACS + sequencing; frameworks hold sequencing errors
In short: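 After 36–48 hours of galactose induction, yeast (Saccharomyces cerevisiae BJ5465) displaying a synthetic nanobody library were stained at 4 °C for 1 hour with 10% biotinylated, detergent-solubilized Sf9 membrane reagent. Streptavidin microbeads enriched the stained cells before FACS sorting into low and high (top ~1%) gates on anti-HA and streptavidin fluorescence. Each clone's polyreactivity label reflects its gate of origin.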

| Sequence | polyreactivity (PSR sort gate) |
| --- | --- |
| QVQLVESGGGLVQAGGSLRLSCAASGSIFNSYAMGWYRQAPGKERELVAAISKRGGSTYYADSVKGRFTISRDNAKNTVYLQMNSLKPEDTAVYYCAAEYYYAGWSYSYDYWGQGTQVTVSS | high polyreactivity |
| QVQLVESGGALVQAGASLRLSCAASGRTFPLYAMGWYRQAPGKEMELVAAISARGSSTYYADSVKGRFTISRDNAKNTVYLQMNSLKAEDNAVYYCAAKRSYPYGSGYWGQGSQVTVSS | high polyreactivity |
| QVQLVESAGGIVQAGGSLRLSCAASGFIFVRNAIGWYRQAPGKEREFVAAINSSGGRTYYADSVKGRFTISRDNAKNTVYLQMNSLKPEDPAVYYCAARPQPKKFYYWGLGTQVTVSS | high polyreactivity |
| QVQIVESGGGLVQAGGSLRLTCAASGFIFSRYAMGWYRQAPAKERELVAAITSGGRTNYADSVKGRFTISRDNAKNTVYLQMNRLKPEDTAVYYCSGAFYPFWPRYTSDYWGQGTQVTVSS | high polyreactivity |
| QVQLVESGGGLVQAGGSLRLSCAASGSTFYVYAMGWYRQAPGKERELVAAITVRGGSTYYADSVKGRFTISRDNAKYTVYLQMNSLKPEDTAVYYCAVDVSKPYYEMDYWGQGTQVTVSS | high polyreactivity |
| QVQLVESGGGLVQAGGSLRLSCAASGSTLGRYTMGWSRQAPGKERELVAAIRASGTSTYYADSVKGRFTISRDNAKNTVYLQMNSLKPEDTAVYYCNALQFGTVRLDSWGLGTQVTVSS | low polyreactivity |
| QVQLVESGGGLVQAGGSLRLSCAASGFTCVPYAMGWYSQAPGKARELVAAITGGGSTYYADSVKGRFTISRDNAKNTVYFQMHSLKPEDTAVYYCAAREARSHRYSNRVYYWGQGTQVTVSS | high polyreactivity |
| QVQLVESGGGLVQAGGSLRLTCAASGRIFAPKAMGWYRQAPGKERELVAGISSGGSTNYADSVKGRFTISRDNAKNTVYLQMNSLTPEDSAVYYCATGSYSYHRGYVTYARYGYWGQGTLVTVSS | low polyreactivity |
| QVQLVESGGGLVQAGGSLRLSCAASGRTFARNAMGWYRPAPGKERELVAAIPRSGGSTYYADSVKGRFTISRDNAKNTVYLQMNSLKPEDTADYYCAAVGTGSSLRYDYWGQGTQVTVSS | high polyreactivity |
| QVQLVESVGGLVQAGGSLRLSCAASGGTFLFYGMGWYRQAPGKERELVAVITWSGGSTYYADSVKGRFTISRDNAKNTVYLQMKSLKPEDTAVYYCNAANTGSPDYQSIGYNFNYWGQGTQVTVSS | low polyreactivity |
| QVQLVESGGGLVQAGGSLRLSCAASGSTSRTYAMGWYRQAPGKERELVAAINSGGTTYYADSVKGRFTISRDNAKNTVYLQMNSLKPEDTAVYYCARRDFWWSRRIFGYWGQGTQVTVSS | high polyreactivity |
| QVQLVESGGGLVQAGGSLRLSSAASGRLFGLNALGWYRQAPGKERELVASSTYSGGSTYYADSVKGRFTISRDNAKNTVYLQMNSLKQEDTAVYYCAGDSWYYWYSTYDYWGQGTQETVSS | high polyreactivity |
| QVQLVESGGGLVQAGGSLRLSCAASGRTFVNNAMGWYRQAPGKERELVAAISRSGGRTYYADSVKGRFTISRDNAKNTVYLQMNSLKPEDTAVYYCAADSSYSRKYDYWGQGTQVTVSS | low polyreactivity |
| QVQLVESGGGLVQSGGSLRLSCAASGSTFDYNAMGWYRQPPGKERELVAAINSGASTYYADSVKGRFTISRDNAKNTVYLLMNSLKPEDTAVYYCAKDYLYIGDYWGQGTQVTVSS | low polyreactivity |
| QVQLVESGGGLVQAGGSLRLSCAASGFIFQHYAMGWYRQAPGKERELVAAISKSGGSTYYADSVKGRFTISRDNAKNTVYLQMNSLKPEDTAVYYCAKVAVAGRGSGNYINHRFDYWGQGTQVTVSS | high polyreactivity |
| QVQLVESGGGLVQAGGILRLSCAASGRSFDRNAMGWYRQAPGKERELVATISSGDTTDYADSVKGRFTISRDNATNTVYLQMNSLKPEDTAGYYITIYNYWGQGTQVTVSS | low polyreactivity |

| Sequence | polyreactivity (PSR sort gate) |
| --- | --- |
| QVQLVESGGGLVQAGGSLRISCAASVSTFGRYAMGWYRQAPGKERELVAAISRGTTTNYADSVKGRFTISRDNAKNTVYLQMNSLKPEDTAVYYCAADQPSKRYYYWGQGTQVTVSS | low polyreactivity |
| QVHLVESGGGLVQAGVSLRLSCPASGIIFWFYAMGWYRQSPGKERQLVAAISGDGDSTYYADSVKGRFTISRDNAKNTVYLQMNSLKPEDTAVYYCAAEWDPVFATDEDDYWGQRTQVTVSS | low polyreactivity |
| QVQRVESGGGLVQAGGRLRLSCAASGRIFIYYAMGWYRQAPGKERELVAAISSSGASTYYADSVKGRFTISRDNAKNTVYLQMISLKPEDTAVYYCAALYYRGGAFPLDYWGQGTQVTVSS | low polyreactivity |
| QVQLVESGGGLVQAGGSLRLSCAASGRTFRSNAMGGTTQAPGKERQLVAGITKSGGNTYYADSVKGRFTISRDNAKNTVYLQMTSLKPEDTAVYYCATRYYPLVNYLGYDYWGQGTQVTVSW | low polyreactivity |
| QVQLVETGGGLVQAGGSLRLSCAASAFTFASYAMGWYRQAPGKEREFVAAITRSGGSTYYADSVKGRFTISRDNAKNTVYLQMNSLKPEDTAVYYGAAQYHGGISQRLYYWGQGTQVTVSS | high polyreactivity |
| QVQLVESGGGLVQAGGSLRLSCAASGRTLPINAMGWYIEAPGKERELVAAISTSGTRTYYADSVKGRFTISRDNAKNTVYLQMNSLKPEDTAVYYCNKDYWKVRSYDYCGQGTQVTVSS | low polyreactivity |
| QVQLVESGGGLVQAGGSLRLSCAASGRTFARYGMGWYRQAPGKERELVATINWRSAGSTYYADSVKGRFTISRDNAKNTVYLLMNSLKPEDTAVYYCNVDSGRSYRVARYDYWGQGTQVTVSS | low polyreactivity |
| QVQLVESGGGLVQAGGSLRLSCAASGSTFQTYAMGWFRQAPGQERELVAAITSGGSTNYADSVKGRFTISRDNAKNTVSLQMNSLKPEDTAVYYCNKKSRRQYDYWGQGTQVTVSS | low polyreactivity |
| QVQLVESGGGLVQAGGSLRLSCAASGIIFTYAMGWYRPAPGKERELVAAIDWRGGRTYYADSVKGRFTISRDNAKNTVYLQMNSLKPEDTSVYYCGARLPGGTYYWGQGTQVTVSS | high polyreactivity |
| QVQLVESVGGLDQAGGSLRLSCAASGSTFSLYTIGWYRQAPGKERELVASISRGGGSTYYADSVKGRFTISRDNAKNTVYLQMNSLKPEDTAVYYCASGTLYFYSHNPEDDFDYWGQGTQVTVSS | high polyreactivity |
| QVQLVESGGGLVQAGGSLRLSCAASGSTFSFNAMGWYRQAPGKERELVAAIRWSGGSTYYADSVKGRFTISRDNAKNTVYLQMNSLKPEDTAVYYCATYWKGGRPPYRYYYWGQGTQVTVSS | high polyreactivity |
| QVPLVESGGGLVQAGCSLRLSCAASGSIFTRDAMGWYRPAPGKERELVAAISAGGGTTYYADSVKGRFTNSRDNAKNTVYLLMNSLKPEDSSVFYCAKRSRSGYYADDSWGHGTQVTVSS | high polyreactivity |
| QVQLVESGGGVVEAGGSLRLSCAASGSTLGFYARGWYRQAPGKEWEFVAAITRSGTSTYYADSVKGRFTISRDNAKNTVYLQMTSLKPEDTAVYYCPAESYYGVPYDSWGQGTQVTLSS | high polyreactivity |
| QVQLVESGGGLVQAGGSLRLSCAASGRIFWDNAMGWYRQAPGKERELVAAISDSVVITYYADSVKGRFTISRDNAKNTVYLQMNSLKPEDTAVYYCAADKRGTVYLSSFWMDYWGQGTQVTVSS | low polyreactivity |
| QVQLVESGGGLVQAGGSLRLSCPASGITVTAYAMGWYRQAPGKERELVATINSTGITNYADSVKGRFTISRDNAKNTVYLQMNSLKPEDTAVYYCAADLMDSSSYDGMDYWGQGTQVTVSS | low polyreactivity |
| QVHLVESGGGLVQAGGSLRLSCAASGFTLYGNVMGWYRPAPGKERELVAAISWSTDSTYYADSLKGRFTISRDNAKNTVYLQMNSLKPEDTAIYYCAADYSHLPIAWYYYWGQGTQVTVSS | low polyreactivity |
